Tests used:
[1] = molecular target: human tauP301L, full-length (from Tg4510 / rTg4510 mouse brain), P10636
[2] = molecular target: human wild-type tau (tauWT), full-length, P10636
[3] = molecular target: T1, z-VAD-fmk (benzyloxycarbonyl-Val-Ala-Asp-fluoromethylketone)
T1 chain: VAD

human wild-type tau (tauWT), full-length, P10636, sequence (P10636 other isoform, or with tags, fused parts or gaps): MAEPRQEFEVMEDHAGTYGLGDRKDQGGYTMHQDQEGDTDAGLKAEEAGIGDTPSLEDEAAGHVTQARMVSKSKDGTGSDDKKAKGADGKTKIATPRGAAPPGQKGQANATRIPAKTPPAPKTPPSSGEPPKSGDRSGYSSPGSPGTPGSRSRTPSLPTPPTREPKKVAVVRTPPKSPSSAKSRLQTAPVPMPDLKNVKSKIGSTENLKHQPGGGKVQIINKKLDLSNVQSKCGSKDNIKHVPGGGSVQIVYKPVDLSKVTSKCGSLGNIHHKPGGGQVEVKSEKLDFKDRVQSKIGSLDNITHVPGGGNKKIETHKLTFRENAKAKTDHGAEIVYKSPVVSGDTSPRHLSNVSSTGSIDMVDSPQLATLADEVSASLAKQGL
human tauP301L, full-length (from Tg4510 / rTg4510 mouse brain), P10636, sequence (P10636 whole entry, looked up): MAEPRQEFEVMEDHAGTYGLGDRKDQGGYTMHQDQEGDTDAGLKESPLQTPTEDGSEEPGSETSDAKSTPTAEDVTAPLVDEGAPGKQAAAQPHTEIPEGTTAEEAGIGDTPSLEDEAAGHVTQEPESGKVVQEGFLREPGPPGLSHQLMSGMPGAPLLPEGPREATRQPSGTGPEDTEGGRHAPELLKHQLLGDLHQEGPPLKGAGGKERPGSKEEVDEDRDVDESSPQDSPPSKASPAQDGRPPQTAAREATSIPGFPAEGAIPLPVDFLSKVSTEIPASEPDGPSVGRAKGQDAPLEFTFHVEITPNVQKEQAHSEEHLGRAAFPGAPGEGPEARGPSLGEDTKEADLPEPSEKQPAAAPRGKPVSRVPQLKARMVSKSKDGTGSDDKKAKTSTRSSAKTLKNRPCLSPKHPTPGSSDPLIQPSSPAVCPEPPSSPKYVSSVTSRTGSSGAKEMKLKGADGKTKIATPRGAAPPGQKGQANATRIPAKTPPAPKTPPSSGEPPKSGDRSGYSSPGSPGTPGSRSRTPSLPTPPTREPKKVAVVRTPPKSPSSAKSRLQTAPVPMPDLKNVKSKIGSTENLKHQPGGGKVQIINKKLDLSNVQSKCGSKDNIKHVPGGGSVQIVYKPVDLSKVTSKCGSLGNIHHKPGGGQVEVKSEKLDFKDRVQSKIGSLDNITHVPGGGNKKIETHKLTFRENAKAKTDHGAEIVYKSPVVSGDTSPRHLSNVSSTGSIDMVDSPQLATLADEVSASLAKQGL
tauD314E, P10636, sequence (P10636 whole entry, looked up): as above
tauD314G, P10636, sequence (P10636 whole entry, looked up): as above

B1: caspase-2 (protein)
chain 1: GPVCLQVKPCTPEFYQTHFQLAYRLQSRPRGLALVLSNVHFTGEKELEFRSGGDVDHSTLVTLFKLLGYDVHVLCDQTAQEMQEKLQNFAQLPAHRVTDSCIVALLSHGVEGAIYGVDGKLLQLQEVFQLFDNANCPSLQNKPKMFFIQACRGDET
chain 2: GKNHAGSPGCEESDAGKEKLPKMRLPTRSDMICGYACLKGTAAMRNTKRGSWYIEALAQVFSERACDMHVADMLVKVNALIKDREGYAPGTEFHRCKEMSEYCSTLCRHLYLFPGHPPT
B1 was tested, and the “35 kDa fragment after incubation with recombinant caspase-2” value (“35 kDa fragment after incubation” for short) (tauD314E, P10636) was “generated a 35 kDa fragment only in the wild-type tau reaction (tauD314E: none)”, the “35 kDa fragment on Tau-13 immunoblot after incubation with the caspase” value [1] was “a 35 kDa fragment generated by co-incubating caspase-2 with full-length tau proteins purified from (A) brain lysates of Tg4510 mice expressing human tauP301L” and the “35 kDa fragment after incubation” value [2] was “generated a 35 kDa fragment only in the wild-type tau reaction that comigrates with tau truncation mutant ΔC314”. The “35 kDa fragment on Tau-13 immunoblot after incubation with the caspase” value [2] was “a 35 kDa fragment generated by co-incubating caspase-2 with full-length tau proteins purified from ... (B) brain lysates of rTg21221 mice expressing human wild-type tau (tauWT) ... or (C) synthetic human tauWT”, the “cleavage of tau by the caspase, Tau-13 immunoblot” value [3] was 50 µM z-VAD-fmk ... (+inhibitor), a general caspase inhibitor, blocked all cleavage and the “cleavage of the FITC peptide substrate, LabChip” value [3] was “Caspase inhibitor blocks caspase-2-mediated cleavage of Asp314 peptide substrate”. For the same protein, the “35 kDa fragment after incubation” value (tauD314G, P10636) was “generated a 35 kDa fragment only in the wild-type tau reaction (tauD314G: none)”.

Source: US20140171373
